In IntAct's records for PubMed 31515488:

B1: Centrosomal protein of 55 kDa (Homo sapiens), Q53EZ4 (parent)
chain: MSSRSTKDLIKSKWGSKPSNSKSETTLEKLKGEIAHLKTSVDEITSGKGKLTDKERHRLLEKIRVLEAEKEKNAYQLTEKDKEIQRLRDQLKARYSTTTLLEQLEETTREGERREQVLKALSEEKDVLKQQLSAATSRIAELESKTNTLRLSQTVAPNCFNSSINNIHEMEIQLKDALEKNQQWLVYDQQREVYVKGLLAKIFELEKKTETAAHSLPQQTKKPESEGYLQEEKQKCYNDLLASAKKDLEVERQTITQLSFELSEFRRKYEETQKEVHNLNQLLYSQRRADVQHLEDDRHKTEKIQKLREENDIARGKLEEEKKRSEELLSQVQFLYTSLLKQQEEQTRVALLEQQMQACTLDFENEKLDRQHVQHQLHVILKELRKARNQITQLESLKQLHEFAITEPLVTFQGETENREKVAASPKSPTAALNESLVECPKCNIQYPATEHRDLLVHVEYCSK
partner: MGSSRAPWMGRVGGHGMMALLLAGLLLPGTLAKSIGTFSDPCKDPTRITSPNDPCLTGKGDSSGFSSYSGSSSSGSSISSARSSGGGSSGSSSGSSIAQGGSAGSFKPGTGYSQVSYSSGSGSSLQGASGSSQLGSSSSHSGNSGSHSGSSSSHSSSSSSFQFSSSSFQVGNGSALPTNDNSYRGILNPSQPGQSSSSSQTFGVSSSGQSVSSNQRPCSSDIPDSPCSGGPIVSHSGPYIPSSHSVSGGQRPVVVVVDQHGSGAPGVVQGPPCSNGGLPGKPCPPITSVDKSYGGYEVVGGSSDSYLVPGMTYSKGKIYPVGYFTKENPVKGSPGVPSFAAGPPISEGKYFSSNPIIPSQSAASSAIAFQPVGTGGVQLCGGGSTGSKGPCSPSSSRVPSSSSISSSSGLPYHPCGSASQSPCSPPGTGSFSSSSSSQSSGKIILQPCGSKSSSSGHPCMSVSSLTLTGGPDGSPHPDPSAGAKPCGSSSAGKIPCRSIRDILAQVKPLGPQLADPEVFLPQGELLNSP
B2: N-chimaerin (Homo sapiens), P15882 (parent)
chain: MALTLFDTDEYRPPVWKSYLYQLQQEAPHPRRITCTCEVENRPKYYGREFHGMISREAADQLLIVAEGSYLIRESQRQPGTYTLALRFGSQTRNFRLYYDGKHFVGEKRFESIHDLVTDGLITLYIETKAAEYIAKMTINPIYEHVGYTTLNREPAYKKHMPVLKETHDERDSTGQDGVSEKRLTSLVRRATLKENEQIPKYEKIHNFKVHTFRGPHWCEYCANFMWGLIAQGVKCADCGLNVHKQCSKMVPNDCKPDLKHVKKVYSCDLTTLVKAHTTKRPMVVDMCIREIESRGLNSEGLYRVSGFSDLIEDVKMAFDRDGEKADISVNMYEDINIITGALKLYFRDLPIPLITYDAYPKFIESAKIMDPDEQLETLHEALKLLPPAHCETLRYLMAHLKRVTLHEKENLMNAENLGIVFGPTLMRSPELDAMAALNDIRYQRLVVELLIKNEDILF
B3: Tetratricopeptide repeat protein 5 (Homo sapiens), Q8N0Z6 (parent)
chain: MMADEEEEVKPILQKLQELVDQLYSFRDCYFETHSVEDAGRKQQDVQKEMEKTLQQMEEVVGSVQGKAQVLMLTGKALNVTPDYSPKAEELLSKAVKLEPELVEAWNQLGEVYWKKGDVAAAHTCFSGALTHCRNKVSLQNLSMVLRQLRTDTEDEHSHHVMDSVRQAKLAVQMDVHDGRSWYILGNSYLSLYFSTGQNPKISQQALSAYAQAEKVDRKASSNPDLHLNRATLHKYEESYGEALEGFSRAAALDPAWPEPRQREQQLLEFLDRLTSLLESKGKVKTKKLQSMLGSLRPAHLGPCSDGHYQSASGQKVTLELKPLSTLQPGVNSGAVILGKVVFSLTTEEKVPFTFGLVDSDGPCYAVMVYNIVQSWGVLIGDSVAIPEPNLRLHRIQHKGKDYSFSSVRVETPLLLVVNGKPQGSSSQAVATVASRPQCE
B4: Zinc finger and BTB domain-containing protein 9 (Homo sapiens), Q96C00 (parent)
chain: METPTPLPPVPASPTCNPAPRTIQIEFPQHSSSLLESLNRHRLEGKFCDVSLLVQGRELRAHKAVLAAASPYFHDKLLLGDAPRLTLPSVIEADAFEGLLQLIYSGRLRLPLDALPAHLLVASGLQMWQVVDQCSEILRELETSGGGISARGGNSYHALLSTTSSTGGWCIRSSPFQTPVQSSASTESPASTESPVGGEGSELGEVLQIQVEEEEEEEEDDDDEDQGSATLSQTPQPQRVSGVFPRPHGPHPLPMTATPRKLPEGESAPLELPAPPALPPKIFYIKQEPFEPKEEISGSGTQPGGAKEETKVFSGGDTEGNGELGFLLPSGPGPTSGGGGPSWKPVDLHGNEILSGGGGPGGAGQAVHGPVKLGGTPPADGKRFGCLCGKRFAVKPKRDRHIMLTFSLRPFGCGICNKRFKLKHHLTEHMKTHAGALHACPHCGRRFRVHACFLRHRDLCKGQGWATAHWTYK
B5: Bcl-2-interacting killer (Homo sapiens), Q13323 (parent)
chain: MSEVRPLSRDILMETLLYEQLLEPPTMEVLGMTDSEEDLDPMEDFDSLECMEGSDALALRLACIGDEMDVSLRAPRLAQLSEVAMHSLGLAFIYDQTEDIRDVLRSFMDGFTTLKENIMRFWRSPNPGSWVSCEQVLLALLLLLALLLPLLSGGLHLLLK
partner: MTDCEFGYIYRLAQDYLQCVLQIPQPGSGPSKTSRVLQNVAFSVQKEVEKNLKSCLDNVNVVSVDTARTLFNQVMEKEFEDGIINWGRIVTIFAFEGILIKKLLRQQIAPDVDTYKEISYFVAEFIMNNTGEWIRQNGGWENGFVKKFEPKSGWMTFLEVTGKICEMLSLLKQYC
B6: Serine/threonine-protein kinase PAK 5 (Homo sapiens), Q9P286 (parent)
chain: MFGKKKKKIEISGPSNFEHRVHTGFDPQEQKFTGLPQQWHSLLADTANRPKPMVDPSCITPIQLAPMKTIVRGNKPCKETSINGLLEDFDNISVTRSNSLRKESPPTPDQGASSHGPGHAEENGFITFSQYSSESDTTADYTTEKYREKSLYGDDLDPYYRGSHAAKQNGHVMKMKHGEAYYSEVKPLKSDFARFSADYHSHLDSLSKPSEYSDLKWEYQRASSSSPLDYSFQFTPSRTAGTSGCSKESLAYSESEWGPSLDDYDRRPKSSYLNQTSPQPTMRQRSRSGSGLQEPMMPFGASAFKTHPQGHSYNSYTYPRLSEPTMCIPKVDYDRAQMVLSPPLSGSDTYPRGPAKLPQSQSKSGYSSSSHQYPSGYHKATLYHHPSLQSSSQYISTASYLSSLSLSSSTYPPPSWGSSSDQQPSRVSHEQFRAALQLVVSPGDPREYLANFIKIGEGSTGIVCIATEKHTGKQVAVKKMDLRKQQRRELLFNEVVIMRDYHHDNVVDMYSSYLVGDELWVVMEFLEGGALTDIVTHTRMNEEQIATVCLSVLRALSYLHNQGVIHRDIKSDSILLTSDGRIKLSDFGFCAQVSKEVPKRKSLVGTPYWMAPEVISRLPYGTEVDIWSLGIMVIEMIDGEPPYFNEPPLQAMRRIRDSLPPRVKDLHKVSSVLRGFLDLMLVREPSQRATAQELLGHPFLKLAGPPSCIVPLMRQYRHH
partner: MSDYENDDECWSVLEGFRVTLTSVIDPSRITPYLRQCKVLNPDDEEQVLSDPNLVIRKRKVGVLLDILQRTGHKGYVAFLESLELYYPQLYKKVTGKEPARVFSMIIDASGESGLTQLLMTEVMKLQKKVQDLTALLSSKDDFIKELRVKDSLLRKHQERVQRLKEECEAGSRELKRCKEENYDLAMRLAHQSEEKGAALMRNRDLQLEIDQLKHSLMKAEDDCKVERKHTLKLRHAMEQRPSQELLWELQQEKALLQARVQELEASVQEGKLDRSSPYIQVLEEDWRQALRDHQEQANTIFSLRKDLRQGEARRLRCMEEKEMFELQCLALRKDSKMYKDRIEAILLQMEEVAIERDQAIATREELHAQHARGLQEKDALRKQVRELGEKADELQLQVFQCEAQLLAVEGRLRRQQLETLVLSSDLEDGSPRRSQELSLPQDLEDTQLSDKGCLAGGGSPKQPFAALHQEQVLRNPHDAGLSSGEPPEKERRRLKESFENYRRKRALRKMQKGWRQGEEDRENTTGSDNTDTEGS
B7: L-fucose dehydrogenase (Homo sapiens), Q9BPX1 (parent)
chain: MATGTRYAGKVVVVTGGGRGIGAGIVRAFVNSGARVVICDKDESGGRALEQELPGAVFILCDVTQEDDVKTLVSETIRRFGRLDCVVNNAGHHPPPQRPEETSAQGFRQLLELNLLGTYTLTKLALPYLRKSQGNVINISSLVGAIGQAQAVPYVATKGAVTAMTKALALDESPYGVRVNCISPGNIWTPLWEELAALMPDPRATIREGMLAQPLGRMGQPAEVGAAAVFLASEANFCTGIELLVTGGAELGYGCKASRSTPVDAPDIPS
B8: EGF-containing fibulin-like extracellular matrix protein 1 (Homo sapiens), Q12805 (parent)
chain: MLKALFLTMLTLALVKSQDTEETITYTQCTDGYEWDPVRQQCKDIDECDIVPDACKGGMKCVNHYGGYLCLPKTAQIIVNNEQPQQETQPAEGTSGATTGVVAASSMATSGVLPGGGFVASAAAVAGPEMQTGRNNFVIRRNPADPQRIPSNPSHRIQCAAGYEQSEHNVCQDIDECTAGTHNCRADQVCINLRGSFACQCPPGYQKRGEQCVDIDECTIPPYCHQRCVNTPGSFYCQCSPGFQLAANNYTCVDINECDASNQCAQQCYNILGSFICQCNQGYELSSDRLNCEDIDECRTSSYLCQYQCVNEPGKFSCMCPQGYQVVRSRTCQDINECETTNECREDEMCWNYHGGFRCYPRNPCQDPYILTPENRCVCPVSNAMCRELPQSIVYKYMSIRSDRSVPSDIFQIQATTIYANTINTFRIKSGNENGEFYLRQTSPVSAMLVLVKSLSGPREHIVDLEMLTVSSIGTFRTSSVLRLTIIVGPFSF

Variants of: B1
Conditions: with cdsn_human CDSN

effect of a mutation on the interaction	Variant
with no effect	C236R

Variants of: B2
Conditions: with nck2_human NCK2, O43639
Chain of nck2_human NCK2, O43639 (O43639 whole entry): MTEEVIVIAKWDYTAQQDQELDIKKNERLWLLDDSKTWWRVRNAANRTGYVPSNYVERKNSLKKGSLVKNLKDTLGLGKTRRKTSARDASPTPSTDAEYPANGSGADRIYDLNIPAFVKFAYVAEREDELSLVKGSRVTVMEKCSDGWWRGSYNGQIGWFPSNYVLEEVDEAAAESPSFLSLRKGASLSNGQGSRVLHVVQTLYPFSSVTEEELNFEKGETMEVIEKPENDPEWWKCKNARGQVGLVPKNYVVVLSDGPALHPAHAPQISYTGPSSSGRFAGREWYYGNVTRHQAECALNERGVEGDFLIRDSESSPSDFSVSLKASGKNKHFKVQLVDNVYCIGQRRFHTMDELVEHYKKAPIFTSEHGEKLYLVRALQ

effect of a mutation on the interaction	Variant
with no effect	D115N

Variants of: B3
Conditions: with kcc2d_human CAMK2D

effect of a mutation on the interaction	Variant
with no effect	G424V

Variants of: B4
Conditions: with pin4_human PIN4, Q9Y237
Chain of pin4_human PIN4, Q9Y237 (Q9Y237 whole entry): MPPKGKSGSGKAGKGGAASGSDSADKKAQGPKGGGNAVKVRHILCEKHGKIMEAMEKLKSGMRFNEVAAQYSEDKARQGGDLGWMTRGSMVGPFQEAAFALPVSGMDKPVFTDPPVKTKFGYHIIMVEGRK

effect of a mutation on the interaction	Variant
with no effect	S173C

Variants of: B4
Conditions: with if4e2_human EIF4E2, O60573
Chain of if4e2_human EIF4E2, O60573 (O60573 whole entry): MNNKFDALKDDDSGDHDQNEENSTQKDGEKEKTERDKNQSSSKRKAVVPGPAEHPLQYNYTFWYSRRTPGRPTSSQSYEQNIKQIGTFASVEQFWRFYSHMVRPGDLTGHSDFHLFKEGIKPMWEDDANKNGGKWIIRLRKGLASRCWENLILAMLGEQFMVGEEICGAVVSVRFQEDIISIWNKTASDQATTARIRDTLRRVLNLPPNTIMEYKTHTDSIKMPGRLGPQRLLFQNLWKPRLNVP

effect of a mutation on the interaction	Variant
with no effect	S173C

Variants of: B4
Conditions: with mo4l1_human MORF4L1, Q9UBU8
Chain of mo4l1_human MORF4L1, Q9UBU8 (Q9UBU8 whole entry): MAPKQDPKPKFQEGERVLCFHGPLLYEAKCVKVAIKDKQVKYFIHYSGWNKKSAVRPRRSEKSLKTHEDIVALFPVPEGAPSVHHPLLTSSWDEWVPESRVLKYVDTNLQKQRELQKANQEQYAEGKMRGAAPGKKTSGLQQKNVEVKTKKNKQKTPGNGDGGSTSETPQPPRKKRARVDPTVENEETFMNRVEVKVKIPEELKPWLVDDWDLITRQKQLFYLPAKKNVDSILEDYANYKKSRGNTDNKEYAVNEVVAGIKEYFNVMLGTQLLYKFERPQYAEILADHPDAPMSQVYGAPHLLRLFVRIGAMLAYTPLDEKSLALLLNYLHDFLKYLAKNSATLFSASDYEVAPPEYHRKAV

effect of a mutation on the interaction	Variant
with no effect	S173C

Variants of: B5
Conditions: with BCL2A1, Q16548

effect of a mutation on the interaction	Variant
with no effect	D69E

Variants of: B6
Conditions: with card9_human CARD9, Q9H257

effect of a mutation on the interaction	Variant
with no effect	R335P

Variants of: B7
Conditions: with psa1_human PSMA1, P25786
Chain of psa1_human PSMA1, P25786 (P25786 whole entry): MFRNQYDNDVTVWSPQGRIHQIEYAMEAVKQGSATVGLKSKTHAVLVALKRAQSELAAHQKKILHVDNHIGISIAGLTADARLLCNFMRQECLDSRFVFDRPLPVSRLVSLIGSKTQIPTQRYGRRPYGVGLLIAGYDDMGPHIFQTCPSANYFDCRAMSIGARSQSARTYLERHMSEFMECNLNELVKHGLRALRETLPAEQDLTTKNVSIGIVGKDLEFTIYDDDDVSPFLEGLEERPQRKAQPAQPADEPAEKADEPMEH

effect of a mutation on the interaction	Variant
with no effect	G16W

Variants of: B7
Conditions: with phf1_human PHF1, O43189
Chain of phf1_human PHF1, O43189 (O43189 whole entry): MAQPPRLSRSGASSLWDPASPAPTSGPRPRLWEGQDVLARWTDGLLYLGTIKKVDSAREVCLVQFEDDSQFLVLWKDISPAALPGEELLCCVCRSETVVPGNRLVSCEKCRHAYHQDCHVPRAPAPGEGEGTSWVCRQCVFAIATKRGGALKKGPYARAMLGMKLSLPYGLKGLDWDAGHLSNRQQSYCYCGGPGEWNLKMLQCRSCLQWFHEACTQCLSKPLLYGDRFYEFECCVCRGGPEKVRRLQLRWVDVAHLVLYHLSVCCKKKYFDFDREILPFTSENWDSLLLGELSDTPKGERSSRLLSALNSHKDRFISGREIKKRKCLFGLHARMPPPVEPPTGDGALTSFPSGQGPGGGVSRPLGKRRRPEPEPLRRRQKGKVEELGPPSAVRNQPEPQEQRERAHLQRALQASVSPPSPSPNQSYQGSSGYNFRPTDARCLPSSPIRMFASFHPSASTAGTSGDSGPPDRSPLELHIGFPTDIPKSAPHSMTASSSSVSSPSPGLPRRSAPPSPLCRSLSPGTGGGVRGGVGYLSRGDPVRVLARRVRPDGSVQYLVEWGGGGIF

effect of a mutation on the interaction	Variant
with no effect	G16W

Variants of: B7
Conditions: with cah8_human CA8, P35219
Chain of cah8_human CA8, P35219 (P35219 whole entry): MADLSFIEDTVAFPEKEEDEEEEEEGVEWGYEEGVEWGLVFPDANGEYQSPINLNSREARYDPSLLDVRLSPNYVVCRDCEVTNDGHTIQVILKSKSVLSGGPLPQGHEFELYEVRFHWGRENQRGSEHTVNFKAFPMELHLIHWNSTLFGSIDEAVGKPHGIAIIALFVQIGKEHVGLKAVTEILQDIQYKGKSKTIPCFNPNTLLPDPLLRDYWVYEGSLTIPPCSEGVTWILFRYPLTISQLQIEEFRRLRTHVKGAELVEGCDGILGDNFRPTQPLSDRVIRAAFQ

effect of a mutation on the interaction	Variant
with no effect	G16W

Variants of: B8
Conditions: with sgta_human SGTA

effect of a mutation on the interaction	Variant
with no effect	D49A

Variants of: B8
Conditions: with ric8a_human RIC8A

effect of a mutation on the interaction	Variant
with no effect	D49A
